Molecular target: SARS-CoV-2 Spike RBD-Fc (SARS-CoV-2)
Experiment: ELISA, RBD-Fc captured via anti-rabbit IgG, concentration-dependent binding

Binder | EC50
HL CV07-315 (antibody, V domains shown) VH: EVQLVESGGGLVQPGRSLRLSCAASGFTFDDYAMHWVRQAPGKGLEWVSGISWNSGSIGYADSVKGRFTISRDNAKNSLYLQMNSLRAEDTALYYCAKDFLWDLHPPRYYGMDVWGQGTTVTVSS VL: QSVLTRPPSVSAAPGQKVTISCSGSSSNIGNNYVSWYQQLPGTAPKLLIYENNKRPSGIPDRFSGSKSGTSATLGITGLQTGDEADYYCGTWDSSLNGVFGGGTKLTVLG | 7.2 ng/mL
HK CV07-209 (antibody, V domains shown) VH: QVQLVESGGGLVKPGGSLRLSCAASGFTFSDYYMSWIRQAPGKGLEWVSYISSSVSTIYYADSVKGRFTISRDNAKNSLYLQMNSLRAEDTAVYYCARDGVIPPRFDYWGQGTLVTVSS VL: not shown | 4.1 ng/mL
HL CV07-250 (antibody, V domains shown) VH: QVQLVQSEAEVKEPGASVEVSCKASGYNFTNFAISWVRQAPGQGLEWMGWISGYNGDTNSAQKFLGRVTMTTDTSTTTAYMELRSLRSDDTAVYYCAGSDNYGFPYNGMDVWGQGTTVTVSS VL: QSALTQPPSASGSPGQSVTISCTGTSSDLGAYHFVTWYQHYPGKAPKVMIYGVRKRPSGVPDRFSGSKSGNTASLTVSGLQDEDEADYYCSSYAGNNDFVFGGGTKLTVLS | 8.7 ng/mL
HL CV07-222 (antibody, V domains shown) VH: QVQLVQSGAEVKKPGASVKVSCKASGYTFTDYYVHWVRQAPGQGLEWMGWINPISGGTNYAQKFQGRVTMTRDTSISTAYMELSRLRSDDTAVYYCARGPYYYDSSGSLGAFDIWGQGTMVTVSS VL: QSALTQPASVSGSPGQSITISCTGTSSDVGSYNLVSWYQQHPGKAPKLMIYEGSKRPSGVSNRFSGSKSGNTASLTISGLQAEDEAHYYCCSYAGGSTSYVFGTGTKVTVLG | 5.5 ng/mL
HK CV38-139 (antibody, V domains shown) VH: EVQLVESGGGLVQPGGSLRLSCAASGFTVSSNYMSWVRQAPGKGLEWVSVFYSGGSTFYADSVKGRFTISRDNSKNTLYLQMNSLRAEDTAVYYCARGHYDLFDYWGQGTLVTVSS VL: DIQLTQSPSFLSASVGDRVTITCRASQGISSYLAWYQQKPGKAPKLLIYAASTLQSGVPSRFSGSGSGTEFTLTISSLQPEDFATYYCQQLNSYPPGTFGPGTKVDIKR | 8.9 ng/mL
HK CVX2-106 (antibody, V domains shown) VH: QVQLVQSGAEVKKPGSSVKVSCKASGGTFSSYAISWVRQAPGQGLEWMGGIIPIFGTANYAQKFQGRVTITADESTSTAYMELSSLRSEDTAVYYCATRKETTVTTSLVYGMDVWGQGTTVTVSS VL: not shown | 5.6 ng/mL
HK CV38-113 (antibody, V domains shown) VH: EVQLVESGGGLVQPGGSLRLSCAASGFTVSSNYMSWVRQAPGKGLEWVSVIYSGGSTYYADSVKGRFTISRHNSKNTLYLQMNSLRAEDTAVYFCARGGRLADAAGDYWGQGTLVTVSS VL: not shown | 5.2 ng/mL
HL CV07-255 (antibody, V domains shown) VH: not shown VL: QSALTQPASVSGSPGQSITISCTRTSSDVESYNLVSWYQQHPGKAPKLMIYEVSKRPSGISNRFSGSKSGNTASLTISGLQAEDEADYYCCSYAGHSTWVFGGGTELTVLG | 4.8 ng/mL
HL CV07-262 (antibody, V domains shown) VH: QVQLVQSGAEVKKPGASVKVSCKASGYTFTGYYMHWVRQAPGQGLEWMGWINPNSGGTNYAQTFQGRVTMTRDTSITTTYMELSRLRSDDTAVYYCARVGWYDFGTPGDYYYYYGMDVWGQGTTVTVSS VL: QSALTQPASVSGSPGQSITISCTGTSSDVGSYNLVSWYQQHPGKAPKLMIYEGSKRPSGVSNRFSGSKSGNTASLTISGLQAEDEADYFCCSYAGTSTFVFGTGTKVTVLG | 12.1 ng/mL
HK CVX1-126 (antibody, V domains shown) VH: EVQLVESGGGLVQPGGSLRLSCAASGLTVSSNYMSWVRQAPGKGLEWVSVIYSGGSTYYADSVKGRFTISRHNSKNTLYLQMNSVRAEDTAVYYCARDLSEGGMDVWGQGTTVTVSS VL: DIQMTQSPSSVSASVGDRVTITCRASQGISSWLAWYQQKPGKAPKLLIYAASTLQSGVPSRFSGSGSGTDFTLTISSLQPEDFATYYCQQANGFPPLFGGGTKVEIKR | 5.5 ng/mL
HK CV07-287 (antibody, V domains shown) VH: QVQLVQSGPEVKKPGTSVKVSCKASGFTFTSSAMQWVRQARGQRLEWIGWIVVGSGNTNYAQKFQERVTITRDMSTSTAYMELSSLRSEDTAVYYCAAPYCSSTNCYDAFDIWGQGTMVTVSS VL: not shown | 5.9 ng/mL
HL CV07-270 (antibody, V domains shown) VH: QVQLVESGGGLVKPGGSLRLSCAASGFTFSDYYMTWIRQAPGKGLEWVSYISSSGSTIYYADSVKGRFTISRDNAKNSLYLQMNSLRAEDTAVYYCARARGSSGWYRIGTRWGNWFDPWGQGTLVTVSS VL: QSALTQPASVSGSPGQSITISCTGTSSDVGGYNYVSWYQQHPGKAPKLMIYEVSNRPSGVSNRFSGSKSGNTASLTISGLQAEDEADYYCSSYTSSSNVVFGGGTMLTVLG | 14.2 ng/mL
HL CV07-283 (antibody, V domains shown) VH: QVQLVQSGAEVKKPGASAKVSCKASGYTFTGYYIHWVRQAPGQGLEWMGLINPISGGTNYAQKFQDRVTMTRDTSISTAYMELSRLRSDDTAVYYCVRGPFYYDSSGPLGGMDVWGQGTTVTVSS VL: QSALTQPASVSGSPGQSITISCTGTSGDVGGYNYVSWYQQHPGKAPKLMIYEVSNRPSGVSNRFSGSKSGNTASLTISGLQAEDEADYYCSSYTSSSTYVFGTGTKVTVLG | 4 ng/mL
HK CV38-221 (antibody, V domains shown) VH: EVQLVESGGGLVQPGGSLRLSCAASGITVSSNYMIWVRQAPGKGLEWVSVIYSGGSTYYADSVKGRFTISRDNSKNTLYLQMNSLRAEDTAVYYCARGFGDYYFDYWGQGTLVTVSS VL: EIVLTQSPGTLSLSPGERATLSCRASQSVSSSYFAWYQQKPGQAPRLLIYGASSRATGIPDRFSGSGSGTDFTLTISRLEPEDFAVYYCQQLYTFGQGTKLEIKR | 6.4 ng/mL

Source: US20240376180A1 (DEUTSCHES ZENTRUM FUR NEURODEGENERATIVE ERKRANKUNGEN E V …, published 2024)
